As a reminder, the EC50 is the concentration needed to bring the measured effect to its halfway point.

The text below walks through data of US20230138315A1 (JIANGSU HENGRUI MEDICINE, published 2023).

Common to all, as to test: ELISA; biotin-labelled antigen on streptavidin-coated plate
(In general: An ELISA detects its analyte on a solid surface through an enzyme-linked reagent.)

The target of assay [1] is T1, mouse ANGPTL3(17-455)-His (mouse, UniProt Q9R182 17-455, biotin-labelled in the ELISA and HTRF assays (sites not given)).
T1 construct: also called full-length mouse ANGPTL3
T1 sequence: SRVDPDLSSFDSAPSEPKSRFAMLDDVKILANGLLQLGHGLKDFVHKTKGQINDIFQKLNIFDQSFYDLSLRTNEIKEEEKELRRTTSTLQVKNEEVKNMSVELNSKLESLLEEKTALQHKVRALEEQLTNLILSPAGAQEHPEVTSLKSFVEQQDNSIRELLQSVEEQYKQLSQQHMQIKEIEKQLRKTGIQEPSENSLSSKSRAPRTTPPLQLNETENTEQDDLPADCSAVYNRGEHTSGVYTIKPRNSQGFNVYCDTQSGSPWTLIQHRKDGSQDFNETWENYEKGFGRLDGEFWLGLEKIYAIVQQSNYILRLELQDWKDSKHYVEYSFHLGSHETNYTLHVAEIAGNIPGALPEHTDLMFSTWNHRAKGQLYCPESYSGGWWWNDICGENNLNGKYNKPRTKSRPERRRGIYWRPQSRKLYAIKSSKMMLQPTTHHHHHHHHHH
As for the experimental part: (§1) An anti-ANGPTL3 antibody inhibited or interfered with at least one activity of an ANGPTL3 protein by binding to the ANGPTL3 protein. The binding activity of the anti-ANGPTL3 antibody to the ANGPTL3 antigen was tested by an ELISA assay. The ANGPTL3 protein (human ANGPTL3(17-170)-mFc) was immobilized on a 96-well microplate by binding to the goat anti-mouse IgG coated on the microplate, and the binding activity of the antibody to the ANGPTL3 was determined according to the intensity of the signal after the antibody was added.
(§2) Streptavidin (Sigma, S4762-5MG) was diluted to a concentration of 3 μg/mL with PBS buffer (Shanghai BasalMedia, B320, pH 7.4), added to a 96-well microplate (Corning, CLS3590-100EA) at 50 μL/well, and then incubated in an incubator at 37° C. for 3 h or incubated at 4° C. overnight (16-18 h). After the liquid was discarded, a PBS-diluted 5% skim milk (BD, 232100) blocking solution was added at 250 μL/well, and the mixture was incubated in an incubator at 37° C. for 3 h or incubated at 4° C. overnight (16-18 h) for blocking. […] The mixture was incubated in an incubator at 37° C. for 2 h. After the incubation was finished, the reaction solution in the microplate was discarded. The plate was washed 3 times with PBST, and then a test antibody that was diluted with a sample diluent to different concentrations was added at […]. The mixture was incubated in an incubator at 37° C. for 2 h.

Assay [2] concerns the target T2, cynomolgus monkey ANGPTL3(17-460)-His (cynomolgus monkey, UniProt Q9Y5C1 17-460 (human entry), biotin-labelled in the ELISA and HTRF assays (sites not given)).
T2 construct: also called full-length cynomolgus monkey ANGPTL3; Cyno ANGPTL3
T2 chain: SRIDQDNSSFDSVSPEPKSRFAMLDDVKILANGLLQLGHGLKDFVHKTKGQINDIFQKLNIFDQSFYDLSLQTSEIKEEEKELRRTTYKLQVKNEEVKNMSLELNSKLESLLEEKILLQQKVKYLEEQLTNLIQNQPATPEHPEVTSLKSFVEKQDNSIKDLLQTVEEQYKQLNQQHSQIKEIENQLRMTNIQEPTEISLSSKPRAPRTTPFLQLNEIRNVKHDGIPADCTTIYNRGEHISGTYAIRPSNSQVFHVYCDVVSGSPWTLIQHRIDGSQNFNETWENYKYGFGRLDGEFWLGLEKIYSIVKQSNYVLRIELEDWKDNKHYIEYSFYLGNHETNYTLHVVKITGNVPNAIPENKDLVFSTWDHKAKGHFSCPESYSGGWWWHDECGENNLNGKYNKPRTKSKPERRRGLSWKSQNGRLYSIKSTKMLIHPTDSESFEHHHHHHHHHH
The method, then:
as §1, §2

The next assay has as its target T3, rat ANGPTL3(17-455)-His (rat, biotin-labelled in the ELISA and HTRF assays (sites not given)).
T3 construct: also called full-length rat ANGPTL3
T3 chain: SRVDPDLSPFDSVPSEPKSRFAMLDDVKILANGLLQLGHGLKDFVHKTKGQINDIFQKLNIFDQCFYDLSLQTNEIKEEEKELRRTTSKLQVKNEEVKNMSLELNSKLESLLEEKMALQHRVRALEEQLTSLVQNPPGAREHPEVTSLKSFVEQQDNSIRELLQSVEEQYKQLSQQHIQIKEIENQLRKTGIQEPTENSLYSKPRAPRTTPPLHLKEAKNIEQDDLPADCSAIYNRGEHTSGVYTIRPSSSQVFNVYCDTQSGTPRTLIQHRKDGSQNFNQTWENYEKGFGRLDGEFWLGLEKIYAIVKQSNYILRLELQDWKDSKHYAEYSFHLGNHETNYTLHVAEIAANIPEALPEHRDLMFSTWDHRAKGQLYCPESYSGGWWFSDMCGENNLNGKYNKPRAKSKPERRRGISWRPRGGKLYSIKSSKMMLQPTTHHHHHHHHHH
The method, then:
as §1, §2

B1: P8G (antibody, human IgG4 S228P, kappa, V domains shown)
VH: QVQLVQSGAEVKKPGASVKVSCKASGYTFTSYDINWVRQAPGQGLEWVGLINPRDDSTSYAQKFQGRVTMTRDTSTSTMYMELSSLRSEDTAVYFCARDLGSIREVLYYGMDVWGQGTTVTVSS
VL: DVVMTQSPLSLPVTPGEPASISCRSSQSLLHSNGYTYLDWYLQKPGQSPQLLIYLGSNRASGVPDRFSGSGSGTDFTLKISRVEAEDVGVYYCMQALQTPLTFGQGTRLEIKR
notes: also called anti-ANGPTL3 antibody P8G; P8 (variable regions)
For B1, the EC50 in assay [1] worked out at 1.73 nM; in assay [2] it was 2.53 nM; in the assay with rat ANGPTL3(17-455)-His, 2.12 nM.

B2: P8BG (antibody, human IgG4 S228P, kappa, V domains shown)
VH: QVQLVQSGAEVKKPGASVKVSCKASGYTFTSYDINWVRQAPGQGLEWVGLINPREDSTSYAQKFQGRVTMTRDTSTSTMYMELSSLRSEDTAVYFCARDLGSIREVLYYGMDVWGQGTTVTVSS
VL: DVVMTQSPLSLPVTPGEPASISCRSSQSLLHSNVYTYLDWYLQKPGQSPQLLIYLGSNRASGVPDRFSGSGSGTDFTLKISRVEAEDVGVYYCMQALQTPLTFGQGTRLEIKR
notes: also called anti-ANGPTL3 antibody P8BG; P8B (variable regions)
B2: the values for the EC50 (in assay [1]; in assay [2]; with rat ANGPTL3(17-455)-His) were 0.105 nM, 0.2 nM and 0.528 nM, respectively.

B3: P3G (antibody, human IgG4 S228P, kappa, V domains shown)
VH: QVQLVQSGAEVKKPGASVKVSCKSSGYTFTDYYLHWLRQAPGQGPEWMGWISPNSGGTSYAQKFQGRVTMTRDTSISTAYMELSSLRSDDTAVYYCARDIATLGNFFTYGMDVWGQGTTVTVSS
VL: DIQLTQSPSSLSASVGDRVTITCRASQGIRNDLGWYQQKPGKAPKLLIYAASSLQSGVPSRFSGSGSGTDFTLTISSLQPEDFATYYCQQSYSSWTFGQGTKVEIKR
notes: also called anti-ANGPTL3 antibody P3G; P3 (variable regions)
As to B3, the EC50 in assay [1] stood at 1.63 nM; in assay [2], 4.55 nM; with rat ANGPTL3(17-455)-His, 1.44 nM.
